B1: HTH-type transcriptional regulator MalT (Escherichia coli (strain K12)), P06993 (parent)
chain: MLIPSKLSRPVRLDHTVVRERLLAKLSGANNFRLALITSPAGYGKTTLISQWAAGKNDIGWYSLDEGDNQQERFASYLIAAVQQATNGHCAICETMAQKRQYASLTSLFAQLFIELAEWHSPLYLVIDDYHLITNPVIHESMRFFIRHQPENLTLVVLSRNLPQLGIANLRVRDQLLEIGSQQLAFTHQEAKQFFDCRLSSPIEAAESSRICDDVSGWATALQLIALSARQNTHSAHKSARRLAGINASHLSDYLVDEVLDNVDLATRHFLLKSAILRSMNDALITRVTGEENGQMRLEEIERQGLFLQRMDDTGEWFCYHPLFGNFLRQRCQWELAAELPEIHRAAAESWMAQGFPSEAIHHALAAGDALMLRDILLNHAWSLFNHSELSLLEESLKALPWDSLLENPQLVLLQAWLMQSQHRYGEVNTLLARAEHEIKDIREDTMHAEFNALRAQVAINDGNPDEAERLAKLALEELPPGWFYSRIVATSVLGEVLHCKGELTRSLALMQQTEQMARQHDVWHYALWSLIQQSEILFAQGFLQTAWETQEKAFQLINEQHLEQLPMHEFLVRIRAQLLWAWARLDEAEASARSGIEVLSSYQPQQQLQCLAMLIQCSLARGDLDNARSQLNRLENLLGNGKYHSDWISNANKVRVIYWQMTGDKAAAANWLRHTAKPEFANNHFLQGQWRNIARAQILLGEFEPAEIVLEELNENARSLRLMSDLNRNLLLLNQLYWQAGRKSDAQRVLLDALKLANRTGFISHFVIEGEAMAQQLRQLIQLNTLPELEQHRAQRILREINQHHRHKFAHFDENFVERLLNHPEVPELIRTSPLTQREWQVLGLIYSGYSNEQIAGELEVAATTIKTHIRNLYQKLGVAHRQDAVQHAQQLLKMMGYGV
partner: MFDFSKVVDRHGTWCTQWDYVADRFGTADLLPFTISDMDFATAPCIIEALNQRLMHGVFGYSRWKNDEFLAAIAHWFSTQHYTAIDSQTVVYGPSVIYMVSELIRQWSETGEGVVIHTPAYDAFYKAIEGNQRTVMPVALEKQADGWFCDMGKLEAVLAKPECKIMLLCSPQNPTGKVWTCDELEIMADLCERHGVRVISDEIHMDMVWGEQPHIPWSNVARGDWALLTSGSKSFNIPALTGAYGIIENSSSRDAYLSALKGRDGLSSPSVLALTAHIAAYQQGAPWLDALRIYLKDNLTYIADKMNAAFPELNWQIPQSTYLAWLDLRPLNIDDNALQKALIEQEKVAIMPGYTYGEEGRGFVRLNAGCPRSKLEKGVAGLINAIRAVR
B2: Protein MalY (Escherichia coli (strain K12)), P23256 (parent)
chain: B1 partner
partner: B1 chain

Variants of: B1
Conditions: with maly_ecoli malY

Row | Variant | effect of a mutation on the interaction
1 | E140A | with no effect
2 | R143A | disrupting interaction strength
3 | R143A;R173A | disrupting interaction strength
4 | N169A | with no effect
5 | R173A | disrupting interaction strength

Variants of: B2
Conditions: with malt_ecoli malT

Row | Variant | effect of a mutation on the interaction
6 | MFDFSKVVDRHGTWCTQWDYVADRFGTADLLPFTISDMDFATAPCIIEALNQRLMHGVFGYSRWKNDEFLAAIAHWFSTQHYTAIDSQTVVYGPSVIYMVSELIRQWSETGEGVVIHTPAYDAFYKAIEGNQRTVMPVALEKQADGWFCDMGKLEAVLAKPECKIMLLCSPQNPTGKVWTCAELAIMADLCERHGVRVISDEIHMDMVWGEQPHIPWANVARGDWALLTSGSKSFNIPALTGAYGIIENSSSRDAYLSALKGRDGLSSPSVLALTAHIAAYQQGAPWLDALRIYLKDNLTYIADKMNAAFPELNWQIPQSTYLAWLDLRPLNIDDNALQKALIEQEKVAIMPGYTYGEEGRGFVRLNAGCPRSKLEKGVAGLINAIRAVR [D182A;E185A;S218A] | with no effect

— IntAct's records for PubMed 37582800
